We go through six molecules from article doi:10.1101/2025.08.07.669073 (bioRxiv, 2025).

Experiment [1] concerns the target human ATP13A1 mutated at the border between the membrane region and the ER lumen (human) (UniProt Q9HD20). Put plainly: co-IP.
Experiment [2] addresses T1, yeast Spf1-FLAG, recombinant from insect cells (S. cerevisiae, UniProt P39986).
T1 sequence: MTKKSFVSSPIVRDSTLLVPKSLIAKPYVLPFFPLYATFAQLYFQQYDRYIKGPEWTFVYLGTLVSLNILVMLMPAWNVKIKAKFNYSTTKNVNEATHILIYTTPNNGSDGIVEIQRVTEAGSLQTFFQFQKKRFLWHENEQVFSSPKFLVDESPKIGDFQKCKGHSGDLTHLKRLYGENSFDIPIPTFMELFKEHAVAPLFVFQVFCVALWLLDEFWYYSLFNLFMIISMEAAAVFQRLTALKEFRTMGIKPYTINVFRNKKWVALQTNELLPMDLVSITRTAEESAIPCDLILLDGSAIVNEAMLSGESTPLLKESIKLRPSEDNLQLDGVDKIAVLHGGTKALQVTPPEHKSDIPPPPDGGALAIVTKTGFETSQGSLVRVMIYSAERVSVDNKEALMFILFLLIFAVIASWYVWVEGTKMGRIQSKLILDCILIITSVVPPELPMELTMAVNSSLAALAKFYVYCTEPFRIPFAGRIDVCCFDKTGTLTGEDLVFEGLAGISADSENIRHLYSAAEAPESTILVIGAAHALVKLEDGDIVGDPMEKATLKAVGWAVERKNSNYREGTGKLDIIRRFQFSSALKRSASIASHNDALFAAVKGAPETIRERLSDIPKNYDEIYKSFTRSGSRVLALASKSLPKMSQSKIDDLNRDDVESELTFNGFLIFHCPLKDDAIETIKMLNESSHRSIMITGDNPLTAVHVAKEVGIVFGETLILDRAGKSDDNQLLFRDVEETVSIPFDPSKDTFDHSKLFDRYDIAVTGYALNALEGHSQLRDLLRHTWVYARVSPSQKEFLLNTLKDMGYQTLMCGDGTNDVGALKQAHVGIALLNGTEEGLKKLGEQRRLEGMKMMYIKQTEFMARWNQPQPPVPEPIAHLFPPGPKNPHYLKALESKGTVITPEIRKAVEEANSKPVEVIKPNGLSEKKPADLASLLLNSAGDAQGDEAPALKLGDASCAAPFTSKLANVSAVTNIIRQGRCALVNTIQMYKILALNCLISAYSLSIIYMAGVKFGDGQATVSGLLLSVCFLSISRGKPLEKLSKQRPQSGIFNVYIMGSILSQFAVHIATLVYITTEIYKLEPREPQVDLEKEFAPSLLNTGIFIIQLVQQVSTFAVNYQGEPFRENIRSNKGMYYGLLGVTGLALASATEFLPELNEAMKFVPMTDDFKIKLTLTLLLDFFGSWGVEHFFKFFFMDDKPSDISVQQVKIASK
Put plainly: cryo-EM structure.

The target in experiment [3] is yeast EMC with Emc5-GFP, Emc7 deleted (S. cerevisiae, UniProt P25574;P47133;P36039;P53073;P40540;Q12431;Q12025). Put plainly: co-IP.
Experiment [4] deals with yeast EMC with Emc5-GFP, Emc10 deleted (S. cerevisiae) (UniProt P25574). Put plainly: co-IP.
The target in experiment [5] is yeast EMC with Emc5-TSII, recombinant from insect cells (S. cerevisiae) (UniProt P25574). Put plainly: co-IP.

Numbering of substitutions follows the chain as printed. In names and notes the source's numbering stands.

Sequence of yeast EMC with Emc5-GFP, Emc7 deleted (P25574 25-760, stated change not applied, chain 1 of 4): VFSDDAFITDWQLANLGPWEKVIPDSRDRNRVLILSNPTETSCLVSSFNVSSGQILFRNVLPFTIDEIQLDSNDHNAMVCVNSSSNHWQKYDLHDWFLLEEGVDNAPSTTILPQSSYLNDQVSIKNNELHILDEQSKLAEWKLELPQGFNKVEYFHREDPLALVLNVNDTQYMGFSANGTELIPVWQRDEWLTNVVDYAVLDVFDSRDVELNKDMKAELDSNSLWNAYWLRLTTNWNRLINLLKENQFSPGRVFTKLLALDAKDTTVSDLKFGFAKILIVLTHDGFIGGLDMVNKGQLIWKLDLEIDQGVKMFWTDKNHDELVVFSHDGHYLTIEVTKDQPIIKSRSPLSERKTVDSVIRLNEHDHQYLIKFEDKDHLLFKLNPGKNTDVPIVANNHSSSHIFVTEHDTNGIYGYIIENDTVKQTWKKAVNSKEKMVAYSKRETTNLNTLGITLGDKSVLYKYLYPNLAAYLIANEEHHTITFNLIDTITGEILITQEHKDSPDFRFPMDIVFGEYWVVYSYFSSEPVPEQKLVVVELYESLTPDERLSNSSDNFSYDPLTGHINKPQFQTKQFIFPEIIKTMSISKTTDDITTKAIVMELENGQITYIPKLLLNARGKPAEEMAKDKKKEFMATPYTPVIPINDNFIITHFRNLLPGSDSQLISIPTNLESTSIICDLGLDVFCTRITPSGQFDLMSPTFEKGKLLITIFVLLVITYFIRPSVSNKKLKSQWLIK
Sequence of yeast EMC with Emc5-GFP, Emc7 deleted (P47133 whole entry, stated change not applied, chain 2 of 4): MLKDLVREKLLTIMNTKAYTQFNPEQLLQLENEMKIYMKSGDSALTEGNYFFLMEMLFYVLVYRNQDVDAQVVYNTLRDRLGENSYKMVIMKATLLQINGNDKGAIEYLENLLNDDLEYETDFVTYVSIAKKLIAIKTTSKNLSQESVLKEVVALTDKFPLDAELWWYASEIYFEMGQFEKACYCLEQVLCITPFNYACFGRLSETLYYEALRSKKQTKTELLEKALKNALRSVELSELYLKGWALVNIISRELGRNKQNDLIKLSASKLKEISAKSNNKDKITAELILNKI
Sequence of yeast EMC with Emc5-GFP, Emc7 deleted (P40540 whole entry, stated change not applied, chain 5 of 4): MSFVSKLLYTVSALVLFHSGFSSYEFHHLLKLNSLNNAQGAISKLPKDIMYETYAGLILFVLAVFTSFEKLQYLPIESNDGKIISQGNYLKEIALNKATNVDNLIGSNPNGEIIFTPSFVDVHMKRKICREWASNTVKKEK
Sequence of yeast EMC with Emc5-GFP, Emc7 deleted (Q12431 whole entry, stated change not applied, chain 6 of 4): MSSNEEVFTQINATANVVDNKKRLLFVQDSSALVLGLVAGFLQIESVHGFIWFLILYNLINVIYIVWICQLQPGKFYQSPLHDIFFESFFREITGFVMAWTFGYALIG
Sequence of human ATP13A1 mutated at the border between the membrane region and the ER lumen (human) (Q9HD20 whole entry, stated change not applied): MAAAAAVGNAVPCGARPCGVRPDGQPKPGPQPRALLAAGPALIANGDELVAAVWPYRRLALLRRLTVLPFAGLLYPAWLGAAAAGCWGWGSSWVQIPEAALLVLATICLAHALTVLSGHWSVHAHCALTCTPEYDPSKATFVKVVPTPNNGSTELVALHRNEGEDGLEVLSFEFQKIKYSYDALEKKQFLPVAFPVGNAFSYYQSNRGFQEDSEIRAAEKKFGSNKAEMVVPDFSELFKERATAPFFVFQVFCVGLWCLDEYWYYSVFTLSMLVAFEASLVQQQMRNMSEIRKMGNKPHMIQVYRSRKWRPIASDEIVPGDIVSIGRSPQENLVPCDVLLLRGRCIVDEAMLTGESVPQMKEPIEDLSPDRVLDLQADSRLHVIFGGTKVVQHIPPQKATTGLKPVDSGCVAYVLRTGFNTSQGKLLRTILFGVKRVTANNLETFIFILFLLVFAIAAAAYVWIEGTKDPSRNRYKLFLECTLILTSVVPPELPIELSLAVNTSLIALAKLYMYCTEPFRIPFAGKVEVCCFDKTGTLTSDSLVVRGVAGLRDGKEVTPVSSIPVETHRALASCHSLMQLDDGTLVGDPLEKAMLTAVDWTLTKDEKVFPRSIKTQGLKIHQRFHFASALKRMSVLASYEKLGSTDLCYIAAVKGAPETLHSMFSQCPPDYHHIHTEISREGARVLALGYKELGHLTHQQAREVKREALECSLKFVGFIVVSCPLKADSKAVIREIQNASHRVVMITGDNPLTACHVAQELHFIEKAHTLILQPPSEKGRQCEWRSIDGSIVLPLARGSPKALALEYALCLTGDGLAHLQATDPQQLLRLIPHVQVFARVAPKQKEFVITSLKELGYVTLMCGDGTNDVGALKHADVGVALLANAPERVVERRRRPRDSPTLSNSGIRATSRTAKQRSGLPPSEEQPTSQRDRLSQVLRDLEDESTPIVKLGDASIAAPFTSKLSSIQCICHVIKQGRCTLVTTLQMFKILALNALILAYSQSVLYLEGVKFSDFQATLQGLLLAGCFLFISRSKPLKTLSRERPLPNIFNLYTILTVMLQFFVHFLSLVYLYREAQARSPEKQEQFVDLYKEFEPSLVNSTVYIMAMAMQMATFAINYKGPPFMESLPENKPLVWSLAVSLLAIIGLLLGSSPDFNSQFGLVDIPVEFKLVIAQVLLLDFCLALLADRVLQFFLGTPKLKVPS

Turning to “human EMC, endogenous, HEK293T (from UniProt Q8N766;Q15006;Q9P0I2;Q5J8M3;Q8N4V1;Q9BV81;Q9NPA0;O43402;Q5UCC4) (complex)”, in experiment [1], the interaction with the hEMC relative to wt was 0.5 of wt.

B1: yeast Emc3, subunit in the recombinant EMC:Spf1 complex (natural protein)
chain: MLLDDQLKYWVLLPISIVMVLTGVLKQYIMTLITGSSANEAQPRVKLTEWQYLQWAQLLIGNGGNLSSDAFAAKKEFLVKDLTEERHLAKAKQQDGSQAGEVPNPFNDPSMSNAMMNMAKGNMASFIPQTIIMWWVNHFFAGFILMQLPFPLTAKFKEMLQTGIICQDLDVRWVSSISWYFISVLGLNPVYNLIGLNDQDMGIQAGIGGPQGPQGPPQSQVDKAMHAMANDLTIIQHETCLDNVEQRVLKQYM
For the molecule B1, the binding result in experiment [2] is reported as “binds”.

B2: yeast Emc10, subunit in the recombinant EMC:Spf1 complex (natural protein)
chain: ADILQLSYSDDAKDAIPLGTFEIDSTSDGNVTVTTVNIQDVEVSGEYCLNAQIEGKLDMPCFSYMKLRTPLKYDLIVDVDEDNEVKQVSLSYDETNDAITATVRYPEAGPTAPVTKLKKKTKTYADKKASKNKDGSTAQFEEDEEVKEVSWFQKNWKMLLLGLLIYNFVAGSAKKQQQGGAGADQKTE
Consider B2, for which, in experiment [2], the binding result was “binds”.

B3: yeast Emc4, subunit in the recombinant EMC:Spf1 complex (natural protein)
chain: MSEQEPYEWAKHLLDTKYIEKYNIQNSNTLPSPPGFEGNSSKGNVTRKQQDATSQTTSLAQKNQITVLQVQKAWQIALQPAKSIPMNIFMSYMSGTSLQIIPIMTALMLLSGPIKAIFSTRSAFKPVLGNKATQSQVQTAMFMYIVFQGVLMYIGYRKLNSMGLIPNAKGDWLPWERIAHYNNGLQWFSD
On to B3, for which the binding result in experiment [2] is given as “binds”.

B4: Spf1 with C-terminal triple HA-tag, endogenous locus, S. cerevisiae (natural protein)
chain: T1 sequence
Consider B4, for which the “Spf1 to Emc5 ratio in the IP, percent of wt” value in experiment [3] is 40%; in experiment [4], 48%.

B5: yeast Spf1 E1087A, recombinant from insect cells (natural protein)
chain: T1 sequence with E1087A
As to B5, in experiment [5], the EMC:Spf1 interaction, percent of wt came out at 30%.
